# Assay results: patent publication US20040106557A1 (LICENTIA, published 2004)
# Bridge positions count the residues as written; N and C are the ends. Ends that are not written are not given here.
# B1: phage-displayed peptide A-1 (fUSE5 phage clone) (peptide)
# chain: CVFTSDYAFC
# notes: not shown: fUSE5 phage protein III and flanking residues
# B2: phage-displayed peptide C-1 (fUSE5 phage clone) (peptide)
# chain: CVSYCLFEFCYVC
# notes: as for B1
# B3: phage-displayed peptide B-2 (fUSE5 phage clone) (peptide)
# chain: CVFAHNYDYLVC
# notes: as for B1
# B4: phage-displayed peptide C-5 (fUSE5 phage clone) (peptide)
# chain: CVSYCDGLQCWMC
# notes: as for B1
# B5: phage-displayed peptide C-3 (fUSE5 phage clone) (peptide)
# chain: CVAYCEEWECYVC
# notes: as for B1
# B6: phage-displayed peptide A-4 (fUSE5 phage clone) (peptide)
# chain: CVFDDLYSFC
# notes: as for B1
# B7: phage-displayed peptide D-2 (fUSE5 phage clone) (peptide)
# chain: CLLYCHDACWWVC
# notes: as for B1
# B8: phage-displayed peptide C-2 (fUSE5 phage clone) (peptide)
# chain: CVEYCWEGSCYVC
# notes: as for B1
# B9: phage-displayed peptide C-4 (fUSE5 phage clone) (peptide)
# chain: CVAYCIEHHCWTC
# notes: as for B1
# B10: phage-displayed peptide B-3 (fUSE5 phage clone) (peptide)
# chain: CRFDKEYRTLVC
# notes: as for B1
# B11: phage-displayed peptide B-1 (fUSE5 phage clone) (peptide)
# chain: CTFSVDYKYLMC
# notes: as for B1
# B12: phage-displayed peptide A-3 (fUSE5 phage clone) (peptide)
# chain: CIFEPDYSYC
# notes: as for B1
# B13: phage-displayed peptide A-2 (fUSE5 phage clone) (peptide)
# chain: CVIYDGNHWC
# notes: as for B1
# B14: phage-displayed peptide D-1 (fUSE5 phage clone) (peptide)
# chain: CLSTCAQSCRISC
# notes: as for B1
# B15: phage-displayed peptide Z-4 (fUSE5 phage clone) (peptide)
# chain: CVVYCDSMKCWTC
# modifications: cysteine pairing not given here; also: displayed on fUSE5 phage protein III
# notes: isolated with 200 µM ZnCl2; not shown: fUSE5 phage protein III and flanking residues
# B16: phage-displayed peptide Z-5 (fUSE5 phage clone) (peptide)
# chain: CVAYCISSLCYYC
# modifications: cysteine pairing not given here; also: displayed on fUSE5 phage protein III
# notes: as for B15
# B17: phage-displayed peptide Z-1 (fUSE5 phage clone) (peptide)
# chain: CVTYCYGEVCYYC
# notes: isolated with 200 µM ZnCl2 in the panning buffer; not shown: fUSE5 phage protein III and flanking residues
# B18: phage-displayed peptide Z-7 (fUSE5 phage clone) (peptide)
# chain: CVFDALYTFC
# modifications: cysteine pairing not given here; also: displayed on fUSE5 phage protein III with flanking residues
# notes: as for B15
# B19: phage-displayed peptide Z-11 (fUSE5 phage clone) (peptide)
# chain: CMFDPMYMWMTC
# modifications: cysteine pairing not given here; also: displayed on fUSE5 phage protein III with flanking residues
# notes: as for B15
# B20: phage-displayed peptide Z-6 (fUSE5 phage clone) (peptide)
# chain: CVWYTGNTWC
# modifications: not fully specified; cysteine pairing not given here; also: displayed on fUSE5 phage protein III with flanking residues
# notes: as for B15
# B21: phage-displayed peptide Z-8 (fUSE5 phage clone) (peptide)
# chain: CVIYPGNVWC
# modifications: cysteine pairing not given here; also: displayed on fUSE5 phage protein III with flanking residues
# notes: as for B15
# B22: phage-displayed peptide Z-10 (fUSE5 phage clone) (peptide)
# chain: CVPYLGLWLC
# modifications: cysteine pairing not given here; also: displayed on fUSE5 phage protein III with flanking residues
# notes: as for B15
# B23: phage-displayed peptide Z-3 (fUSE5 phage clone) (peptide)
# chain: CVQYCIGGDCWFC
# modifications: cysteine pairing not given here; also: displayed on fUSE5 phage protein III
# notes: as for B15
# B24: phage-displayed peptide Z-2 (fUSE5 phage clone) (peptide)
# chain: CAAYCVAGLCYGC
# modifications: cysteine pairing not given here; also: displayed on fUSE5 phage protein III
# notes: as for B15
# Target: T1, Prostate specific antigen (PSA), purified from human seminal fluid (human, UniProt P07288 25-261)
# T1 construct: mature; Mostly captured on wells by MAb 5E4 (IFMA) or on the chip by MAb H117 (SPR); in solution in enzyme assays; also called free PSA; active PSA
# Assay: GST-peptide IFMA, PSA captured by MAb 5E4, Eu-labelled anti GST tracer
row,Binder,Maximal binding (CPS)
1,CVAYCIEHHCWTC (other) [GST-C-4 (peptide C-4 expressed as glutathione S-transferase fusion protein)],790000

# Target: T1, Prostate specific antigen (PSA), …
# Assay: cell-based or functional assay
row,Binder,PSA-peptide/PSA ratio [ratio]
1,CVFAHNYNYC (disulfide 1-10 (inferred)) [B-2-4 (B-2 10 N8)],1.9
2,CVFAHNANYLVC (disulfide 1-12 (inferred)) [B-2-5 (B-2 A7)],1.1
3,CVAACIEHHCWTC (disulfide (positions not given here)) [C-4-5 (C-4 A4)],1
4,CVAYAIQHHC (disulfide 1-10 (inferred)) [C-4-4 (C-4 10A5Q7)],1.1
5,CVFTSNYAFC (disulfide 1-10 (inferred)) [A-1-4 (A-1 N6)],2.4
6,CVAFCIEHHCWTC (disulfide (positions not given here)) [C-4-2 (C-4 F4)],2.3
7,CVAYCIEHHCATC (disulfide (positions not given here); not fully specified) [C-4-6 (C-4 A11)],0.9
8,"CVAYCIEHHCWTC (disulfide 1-13, 5-10) [chemically synthesized peptide C-4 without GA flanks (C-4-1, C4 parent)]",2.1
9,cyclo(HHCWTVAYCIE) (disulfide 3-9 (inferred)) [C-4-7 (cyclic with peptide bond)],0.8
10,CVFTSNAAYC (disulfide 1-10 (inferred)) [A-1-6 (A1 N6Y7Y9)],1
11,CVAYCIQHHCWTC (disulfide (positions not given here)) [C-4-3 (C-4 Q7)],2.1
12,CVFAHNYNALVC (disulfide 1-12 (inferred)) [B-2-3 (B-2 N8A9)],2.6
13,"CVFTSDYAFC (disulfide 1-10) [chemically synthesized peptide A-1 (A-1-1, A-1 parent)]",2.3
14,"CVFAHNYDYLVC (disulfide 1-12) [chemically synthesized peptide B-2 (B-2-1, B-2 parent)]",3
15,CVFTSNYAYC (disulfide 1-10 (inferred)) [A-1-2 (A-1 N6Y9)],2.3
16,CVYTSDYAYC (disulfide 1-10 (inferred)) [A-1-5 (A-1 Y39)],1
17,CVFTSNYNYC (disulfide 1-10 (inferred)) [A-1-3 (A-1 N6N8Y9)],1.9
18,CVFAHNYNYLVC (disulfide 1-12 (inferred)) [B-2-2 (B-2 N8)],3.1

# Target: T1, Prostate specific antigen (PSA), …
# Assay: phage display, three rounds of selection on PSA captured by MAb 5E4
# Protocol: (§1) The screening of phage display peptide libraries was performed essentially as described by Koivunen et al. (21). Briefly, each phage library was separately screened with PSA captured on microtiter wells coated with the monoclonal antibody 5E4, which binds both free and complexed PSA (24). 33 nM PSA in TBS buffer containing 10 g/L BSA (BSA-TBS) was incubated in wells coated with MAb 5E4 for 1 h, then the wells were washed to remove unbound PSA. An aliquot of each phage library ([…] infectious particles) was added to the wells, and incubated for 3 h at 22° C. during the first round of panning and for 1 h during subsequent rounds. The phage solution was removed and the wells were washed with TBS containing 0.5% Tween 20. The panning was also performed in the prescence of 200 μM ZnCl2. The bound phage were eluted with 0.1 M glycine buffer, pH 2.2 and neutralized with 1 M Tris base. The eluted phage were amplified by infection of E. coli K91 kan cells, and purified by precipitation with polyethylene glycol. After three rounds of selection and amplification single stranded DNA from individual phage clones was prepared and the peptide sequences were determined by sequencing the relevant part of the viral DNA. Sequencing was performed with an ABI 310 Genetic analyzer and Dye Terminator Cycle Sequencing Core Kit (PE Applied Biosystems, Foster City, Calif., USA) using the oligonucleotide 5′ […] 3′ as a primer.
row,Binder,binding result
1,B1,binds
2,B2,binds
3,B3,binds
4,B4,binds
5,B5,binds
6,B6,binds
7,B7,binds
8,B8,binds
9,B9,binds
10,B10,binds
11,B11,binds
12,B12,binds
13,B13,binds
14,B14,binds

# Target: T1, Prostate specific antigen (PSA), …
# Assay: cell-based or functional assay
# Remark: another data set of the same source
row,Binder,50% stimulation [µM]
1,CVAYCIEHHCWTC (other) [GST-C-4 (peptide C-4 expressed as glutathione S-transferase fusion protein)],0.57

# Target: T1, Prostate specific antigen (PSA), …
# Assay: cell-based or functional assay
# Remark: another data set of the same source
row,Binder,"decrease in PSA enzyme activity (S-2586, A405), 30-fold molar excess of peptide [%]"
1,CVAYCIEHHCWTC (also: 99mTc chelated between thiol sulfurs of reduced peptide) [Tc99m-labeled C4],~50

# Target: T1, Prostate specific antigen (PSA), …
# Assay: phage display selection on PSA captured by MAb 5E4, 200 µM ZnCl2 in the panning buffer
# Protocol: as §1
row,Binder,binding result
1,B15,binds
2,B16,binds
3,B17,binds
4,B18,binds
5,B19,binds
6,B20,binds
7,B21,binds
8,B22,binds
9,B23,binds
10,B24,binds
